# Experimental data reported in article PMC3605031, “Mitogen-Activated Protein Kinase p38b Interaction with Delta Class Glutathione Transferases from the Fruit Fly, Drosophila melanogaster” (Journal of Insect Science, 2012).
# Read-outs that look alike come from different tables or passages of the source.
# B1: Drosophila melanogaster Delta class glutathione transferase DmGSTD2 (enzyme)
# chain: MDFYYMPGGGGCRTVIMVAKALGLELNKKLLNTMEGEQLKPEFVKLNPQHTIPTLVDNGFSIWESRAIAVYLVEKYGKDDYLLPNDPKKRAVINQRLYFDMGTLYESFAKYYYPLFRTGKPGSDEDLKRIETAFGFLDTFLEGQEYVAGDQLTVADIAILSTVSTFEVSEFDFSKYSNVSRWYDNAKKVTPGWDENWEGLMAMKALFDARKLAAK
# B2: Drosophila melanogaster Delta class glutathione transferase DmGSTD7 (enzyme)
# chain: MPNLDLYNFPMAPASRAIQMVAKALGLELNSKLINTMEGDQLKPEFVRINPQHTIPTLVDNGFVIWESRAIAVYLVEKYGKPDSPLYPNDPQKRALINQRLYFDMGTLYDALTKYFFLIFRTGKFGDQEALDKVNSAFGFLNTFLEGQDFVAGSQLTVADIVILATVSTVEWFSFDLSKFPNVERWLKNAPKVTPGWEQNLESLQQGKKFLQDLQAAKEKEVKA
# B3: Drosophila melanogaster Delta class glutathione transferase DmGSTD8 (enzyme)
# chain: MDFYYHPCSAPCRSVIMTAKALGVDLNMKLLKVMDGEQLKPEFVKLNPQHCIPTLVDDGFSIWESRAILIYLVEKYGADDSLYPSDPQKKAVVNQRLYFDMGTLFQSFVEAIYPQIRNNHPADPEAMQKVDSAFGHLDTFLEDQEYVAGDCLTIADIALLASVSTFEVVDFDIAQYPNVARWYENAKEVTPGWEENWDGVQLIKKLVQERNE
# B4: Drosophila melanogaster Delta class glutathione transferase DmGSTD3 (enzyme)
# chain: MVGKALGLEFNKKIINTLKGEQMNPDFIKINPQHSIPTLVDNGFTIWESRAILVYLVEKYGKDDALYPKDIQKQAVINQRLYFDMALMYPTLANYYYKAFTTGQFGSEEDYKKVQETFDFLNTFLEGQDYVAGDQYTVADIAILANVSNFDVVGFDISKYPNVARWYDHVKKITPGWEENWAGALDVKKRIEEKQNAAK
# B5: Drosophila melanogaster Delta class glutathione transferase DmGSTD5 (enzyme)
# chain: MDFYYSPRGSGCRTVIMVAKALGVKLNMKLLNTLEKDQLKPEFVKLNPQHTIPTLVDNGFSIWESRAIAVYLVEKYGKDDTLFPKDPKKQALVNQRLYFDMGTLYDSFAKYYYPLFHTGKPGSDEDFKKIESSFEYLNIFLEGQNYVAGDHLTVADIAILSTVSTFEIFDFDLNKYPNVARWYANAKKVTPGWEENWKGAVELKGVFDARQAAAKQ
# Legend:
# [1] = biological target: Drosophila melanogaster p38b mitogen-activated protein kinase (D. melanogaster) (UniProt O61443)
# Sequence of UniProt O61443 (O61443 whole entry): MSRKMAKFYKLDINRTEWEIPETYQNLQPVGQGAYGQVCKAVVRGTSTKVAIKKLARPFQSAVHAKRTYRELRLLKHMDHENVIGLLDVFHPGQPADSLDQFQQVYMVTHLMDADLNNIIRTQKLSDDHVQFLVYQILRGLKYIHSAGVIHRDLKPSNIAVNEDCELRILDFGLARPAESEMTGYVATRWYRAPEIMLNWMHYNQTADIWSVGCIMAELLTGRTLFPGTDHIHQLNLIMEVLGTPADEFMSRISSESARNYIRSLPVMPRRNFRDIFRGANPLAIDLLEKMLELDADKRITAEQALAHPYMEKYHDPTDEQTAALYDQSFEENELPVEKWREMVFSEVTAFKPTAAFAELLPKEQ
# [2] = biological target: Drosophila melanogaster p38b mitogen-activated protein kinase (D. melanogaster) (UniProt O61443); remark: listed apart in the source
# [3] = biological target: Drosophila melanogaster p38b mitogen-activated protein kinase (D. melanogaster) (UniProt O61443); remark: listed apart in the source
Molecule,fold change of p38b kinase activity toward ATF2 with GST at 1:1 molar ratio (ADP Quest assay) [1] [fold],fold change of p38b kinase activity toward jun with GST at 1:1 molar ratio (ADP Quest assay) [1] [fold],increase of GST activity toward DCNB after incubation with p38b at 1:1 molar ratio [3] [% increase],further results
Drosophila melanogaster Delta class glutathione transferase DmGSTD11b (enzyme),7.1,10,,
B1,,,37,decrease of GST activity toward CDNB after incubation with p38b at 1:1 molar ratio [2]: 5 % decrease
B2,,,10,
B3,6.5,8.1,30,
B4,1.8,2.6,,
B5,1.4,1.6,,"decrease of GST activity toward CDNB after incubation with p38b at 1:1 molar ratio, as told in the discussion [2]: 8 % decrease; decrease of GST activity toward DCNB after incubation with p38b at 1:1 molar ratio, as told in the discussion [2]: 36 % decrease; fold change of p38b kinase activity toward jun with GST at 1:1 molar ratio (ADP Quest assay), as told in the discussion [2]: 1.5 fold; decrease of GST activity toward CDNB after incubation with p38b at 1:1 molar ratio [3]: 10 % decrease; decrease of GST activity toward DCNB after incubation with p38b at 1:1 molar ratio [3]: 40 % decrease"
